Experimental data reported in publication PMC11955279 (2025).

B1: AtSEP3 (…3), wild type, in pGADT7 [Arabidopsis thaliana] / AtAP1 (APETALA1), in pGBKT7 [Arabidopsis thaliana] (parent complex)
chain 1: MGRGRVELKRIENKINRQVTFAKRRNGLLKKAYELSVLCDAEVALIIFSNRGKLYEFCSSSSMLRTLERYQKCNYGAPEPNVPSREALAVELSSQQEYLKLKERYDALQRTQRNLLGEDLGPLSTKELESLERQLDSSLKQIRALRTQFMLDQLNDLQSKERMLTETNKTLRLRLADGYQMPLQLNPNQEEVDHYGRHHHQQQQHSQAFFQPLECEPILQIGYQGQQDGMGAGPSVNNYMLGWLPYDTNSI
chain 2: not shown

Variants of: B1
Experiment: yeast two-hybrid β-galactosidase activity assay; parent: 26; read off a plot

response	Variant
~15 β-galactosidase units	chain 1 L108A
~8.7 β-galactosidase units	chain 1 L120A
~14 β-galactosidase units	chain 1 L101A
~11 β-galactosidase units	chain 1 L116A
~13 β-galactosidase units	chain 1 L115A
~16 β-galactosidase units	chain 1 L99A

Variants of: B1
Experiment: yeast two-hybrid β-galactosidase activity assay; parent: 51; read off a plot

response	Variant
~15 β-galactosidase units	chain 1 L99A, chain 1 L101A, chain 1 L108A, chain 1 L115A, chain 1 L116A
~24 β-galactosidase units	chain 1 L99A, chain 1 L101A
~25 β-galactosidase units	chain 1 L99A, chain 1 L101A, chain 1 L108A, chain 1 L115A
~21 β-galactosidase units	chain 1 L99A, chain 1 L101A, chain 1 L108A
~31 β-galactosidase units	chain 1 L99A
